From article PMC10803776, “Structure of the M. tuberculosis DnaK−GrpE complex reveals how key DnaK roles are controlled” (Nature Communications, 2024)
Ends that are not written are not given here.

Experiments:
[1] = biological target: T1, Mycobacterium tuberculosis DnaK, full length, wild type (Mycobacterium tuberculosis, UniProt P9WMJ9 1-625); experiment: ITC; settings: both partners purified
T1 construct: DnaK (Hsp70 chaperone) of Mycobacterium tuberculosis, full length; also called Mtb DnaK; WT DnaK

[2] = biological target: T2, Mycobacterium tuberculosis DnaK Mut-1 (Y106A, L107A) (Mycobacterium tuberculosis, UniProt P9WMJ9 1-625, Y106A | L107A); experiment: ITC; settings: both partners purified
T2 construct: DnaK of Mycobacterium tuberculosis, full length, with two alanine substitutions in NBD subdomain IA

[3] = biological target: T3, Mycobacterium tuberculosis DnaK, wild type, full length (Mycobacterium tuberculosis, UniProt P9WMJ9 1-625); experiment: SEC-MALS; settings: both partners purified
T3 construct: DnaK (Hsp70 chaperone) of Mycobacterium tuberculosis, full length; also called Mtb DnaK; WT DnaK

[4] = biological target: the molecule itself; experiment: cryo-EM structure; DnaK 2 μM, DnaJ2 4 μM, GrpE 4 μM, telaprevir 200 μM in 25 mM Tris pH 8.0, 40 mM NaCl, 10 mM MgCl2; no nucleotide; 3.7 Å map
[5] = biological target: T3, Mycobacterium tuberculosis DnaK, wild …; experiment: fluorescence polarisation; direct binding of F-NR to DnaK in the presence of ADP or without nucleotide; settings: both partners purified

B1: Mycobacterium tuberculosis GrpE, full length, wild type (natural protein)
chain: MTDGNQKPDGNSGEQVTVTDKRRIDPETGEVRHVPPGDMPGGTAAADAAHTEDKVAELTADLQRVQADFANYRKRALRDQQAAADRAKASVVSQLLGVLDDLERARKHGDLESGPLKSVADKLDSALTGLGLVAFGAEGEDFDPVLHEAVQHEGDGGQGSKPVIGTVMRQGYQLGEQVLRHALVGVVDTVVVDAAELESVDDGTAVADTAENDQADQGNSADTSGEQAESEPSGS
notes: GrpE (nucleotide exchange factor) of Mycobacterium tuberculosis, full length; also called Mtb GrpE; WT GrpE
Kd [1]: 240 nM | stoichiometry N [1]: 0.69 | Kd [2]: 1070 nM | stoichiometry N [2]: 0.13

B2: Mycobacterium tuberculosis GrpE, wild type, full length (natural protein)
chain: MTDGNQKPDGNSGEQVTVTDKRRIDPETGEVRHVPPGDMPGGTAAADAAHTEDKVAELTADLQRVQADFANYRKRALRDQQAAADRAKASVVSQLLGVLDDLERARKHGDLESGPLKSVADKLDSALTGLGLVAFGAEGEDFDPVLHEAVQHEGDGGQGSKPVIGTVMRQGYQLGEQVLRHALVGVVDTVVVDAAELESVDDGTAVADTAENDQADQGNSADTSGEQAESEPSGS
notes: GrpE (nucleotide exchange factor) of Mycobacterium tuberculosis, full length, 235 residues (C-terminal residues printed as aa 188-235); also called Mtb GrpE; WT GrpE
stoichiometry N [3]: 2 GrpE per DnaK | stoichiometry N [4]: 2

B3: N-terminal fluorescein-labeled NR peptide (NRLLLTG) (peptide)
peptide: fluorescein-NRLLLTG
notes: model peptide substrate of DnaK; also called F-NR; fluorescently tagged NR; source: bought: PEPTIDE 2.0 (purity >95%)
binding result [5]: binds
